Measurements from publication doi:10.1101/332304 (bioRxiv, 2018).

Target: T1, (NPNA)2 peptide (Plasmodium falciparum)
T1 chain: NPNANPNA
Assay: ITC

B1: Fab311 inter-Fab contact residue reverted (Fab311R) (Fab, V domains shown)
VH: QVQLVESGGGVVPPGRSLRLSCATSGFTFSSYGMHWVRQAPGKGLEWVAIIWYDGSNKFYAASVKGRFTISRDNSKNTLYLQMNSLRVEDTAVYYCARAAYYDTSGYGDYWGQGTLVTVSS
VL: QSVLTQPPSVSGAPGQTVTISCTGGSSNIGAGYDVHWYQQLPGTAPKLLIYGNINRPSGVPDRFSGSKSGTSASLAITGLQAEDEADYYCQSYDSSLSGSWVFGGGTKLTVL
  binding result: binds
